This note sets out measurements from US20130071366A1 (CANCER RESEARCH TECHNOLOGY, published 2013).

First the molecules themselves.
B1: IGF2R domain 11 G1619R (common human polymorphism) (receptor)
chain: NEHDDCQVTNPSTGHLFDLSSLSGRAGFTAAYSEKGLVYMSICGENENCPPGVGACFGQTRISVGKANKRLRYVDQVLQLVYKDGSPCPSKSGLSYKSVISFVCRPEARPTNRPMLISLDKQTCTLFFSWHTPLACEQATHHHHHH
notes: Secreted from Pichia pastoris
B2: IGF2R domain 11 K1545A (receptor)
chain: NEHDDCQVTNPSTGHLFDLSSLSGRAGFTAAYSEAGLVYMSICGENENCPPGVGACFGQTRISVGKANKRLRYVDQVLQLVYKDGSPCPSKSGLSYKSVISFVCRPEAGPTNRPMLISLDKQTCTLFFSWHTPLACEQATHHHHHH
notes: Secreted from Pichia pastoris
B3: IGF2R domain 11 S1596A (receptor)
chain: NEHDDCQVTNPSTGHLFDLSSLSGRAGFTAAYSEKGLVYMSICGENENCPPGVGACFGQTRISVGKANKRLRYVDQVLQLVYKDGAPCPSKSGLSYKSVISFVCRPEAGPTNRPMLISLDKQTCTLFFSWHTPLACEQATHHHHHH
notes: Secreted from Pichia pastoris
B4: IGF2R domain 11 S1543A (receptor)
chain: NEHDDCQVTNPSTGHLFDLSSLSGRAGFTAAYAEKGLVYMSICGENENCPPGVGACFGQTRISVGKANKRLRYVDQVLQLVYKDGSPCPSKSGLSYKSVISFVCRPEAGPTNRPMLISLDKQTCTLFFSWHTPLACEQATHHHHHH
notes: Secreted from Pichia pastoris
B5: IGF2R domain 11 Q1569A (receptor)
chain: NEHDDCQVTNPSTGHLFDLSSLSGRAGFTAAYSEKGLVYMSICGENENCPPGVGACFGATRISVGKANKRLRYVDQVLQLVYKDGSPCPSKSGLSYKSVISFVCRPEAGPTNRPMLISLDKQTCTLFFSWHTPLACEQATHHHHHH
notes: Secreted from Pichia pastoris
B6: IGF2R domain 11 T1570A (receptor)
chain: NEHDDCQVTNPSTGHLFDLSSLSGRAGFTAAYSEKGLVYMSICGENENCPPGVGACFGQARISVGKANKRLRYVDQVLQLVYKDGSPCPSKSGLSYKSVISFVCRPEAGPTNRPMLISLDKQTCTLFFSWHTPLACEQATHHHHHH
notes: Secreted from Pichia pastoris
B7: IGF2R domain 11 with W at position 1544 (receptor)
chain: NEHDDCQVTNPSTGHLFDLSSLSGRAGFTAAYSWKGLVYMSICGENENCPPGVGACFGQTRISVGKANKRLRYVDQVLQLVYKDGSPCPSKSGLSYKSVISFVCRPEAGPTNRPMLISLDKQTCTLFFSWHTPLACEQATHHHHHH
notes: Secreted from Pichia pastoris; also called E1544W
B8: IGF2R domain 11 with T at position 1544 (receptor)
chain: NEHDDCQVTNPSTGHLFDLSSLSGRAGFTAAYSTKGLVYMSICGENENCPPGVGACFGQTRISVGKANKRLRYVDQVLQLVYKDGSPCPSKSGLSYKSVISFVCRPEAGPTNRPMLISLDKQTCTLFFSWHTPLACEQATHHHHHH
notes: Secreted from Pichia pastoris; also called E1544T
B9: IGF2R domain 11 with I at position 1544 (receptor)
chain: NEHDDCQVTNPSTGHLFDLSSLSGRAGFTAAYSIKGLVYMSICGENENCPPGVGACFGQTRISVGKANKRLRYVDQVLQLVYKDGSPCPSKSGLSYKSVISFVCRPEAGPTNRPMLISLDKQTCTLFFSWHTPLACEQATHHHHHH
notes: Secreted from Pichia pastoris; also called E1544I
B10: IGF2R domain 11 with H at position 1544 (receptor)
chain: NEHDDCQVTNPSTGHLFDLSSLSGRAGFTAAYSHKGLVYMSICGENENCPPGVGACFGQTRISVGKANKRLRYVDQVLQLVYKDGSPCPSKSGLSYKSVISFVCRPEAGPTNRPMLISLDKQTCTLFFSWHTPLACEQATHHHHHH
notes: Secreted from Pichia pastoris; also called E1544H
B11: IGF2R domain 11 with G at position 1544 (receptor)
chain: NEHDDCQVTNPSTGHLFDLSSLSGRAGFTAAYSGKGLVYMSICGENENCPPGVGACFGQTRISVGKANKRLRYVDQVLQLVYKDGSPCPSKSGLSYKSVISFVCRPEAGPTNRPMLISLDKQTCTLFFSWHTPLACEQATHHHHHH
notes: Secreted from Pichia pastoris; also called E1544G
B12: IGF2R domain 11 with F at position 1544 (receptor)
chain: NEHDDCQVTNPSTGHLFDLSSLSGRAGFTAAYSFKGLVYMSICGENENCPPGVGACFGQTRISVGKANKRLRYVDQVLQLVYKDGSPCPSKSGLSYKSVISFVCRPEAGPTNRPMLISLDKQTCTLFFSWHTPLACEQATHHHHHH
notes: Secreted from Pichia pastoris; also called E1544F
B13: IGF2R domain 11 with Q at position 1544 (receptor)
chain: NEHDDCQVTNPSTGHLFDLSSLSGRAGFTAAYSQKGLVYMSICGENENCPPGVGACFGQTRISVGKANKRLRYVDQVLQLVYKDGSPCPSKSGLSYKSVISFVCRPEAGPTNRPMLISLDKQTCTLFFSWHTPLACEQATHHHHHH
notes: Secreted from Pichia pastoris; also called E1544Q
B14: IGF2R domain 11 with R at position 1544 (receptor)
chain: NEHDDCQVTNPSTGHLFDLSSLSGRAGFTAAYSRKGLVYMSICGENENCPPGVGACFGQTRISVGKANKRLRYVDQVLQLVYKDGSPCPSKSGLSYKSVISFVCRPEAGPTNRPMLISLDKQTCTLFFSWHTPLACEQATHHHHHH
notes: Secreted from Pichia pastoris; also called E1544R
B15: IGF2R domain 11 with N at position 1544 (receptor)
chain: NEHDDCQVTNPSTGHLFDLSSLSGRAGFTAAYSNKGLVYMSICGENENCPPGVGACFGQTRISVGKANKRLRYVDQVLQLVYKDGSPCPSKSGLSYKSVISFVCRPEAGPTNRPMLISLDKQTCTLFFSWHTPLACEQATHHHHHH
notes: Secreted from Pichia pastoris; also called E1544N
B16: IGF2R domain 11 with P at position 1544 (receptor)
chain: NEHDDCQVTNPSTGHLFDLSSLSGRAGFTAAYSPKGLVYMSICGENENCPPGVGACFGQTRISVGKANKRLRYVDQVLQLVYKDGSPCPSKSGLSYKSVISFVCRPEAGPTNRPMLISLDKQTCTLFFSWHTPLACEQATHHHHHH
notes: Secreted from Pichia pastoris; also called E1544P
B17: IGF2R domain 11 with Y at position 1544 (receptor)
chain: NEHDDCQVTNPSTGHLFDLSSLSGRAGFTAAYSYKGLVYMSICGENENCPPGVGACFGQTRISVGKANKRLRYVDQVLQLVYKDGSPCPSKSGLSYKSVISFVCRPEAGPTNRPMLISLDKQTCTLFFSWHTPLACEQATHHHHHH
notes: Secreted from Pichia pastoris; also called E1544Y
B18: IGF2R domain 11 with S at position 1544 (receptor)
chain: NEHDDCQVTNPSTGHLFDLSSLSGRAGFTAAYSSKGLVYMSICGENENCPPGVGACFGQTRISVGKANKRLRYVDQVLQLVYKDGSPCPSKSGLSYKSVISFVCRPEAGPTNRPMLISLDKQTCTLFFSWHTPLACEQATHHHHHH
notes: Secreted from Pichia pastoris; also called E1544S
B19: IGF2R domain 11 with D at position 1544 (receptor)
chain: NEHDDCQVTNPSTGHLFDLSSLSGRAGFTAAYSDKGLVYMSICGENENCPPGVGACFGQTRISVGKANKRLRYVDQVLQLVYKDGSPCPSKSGLSYKSVISFVCRPEAGPTNRPMLISLDKQTCTLFFSWHTPLACEQATHHHHHH
notes: Secreted from Pichia pastoris; also called E1544D
B20: IGF2R domain 11 with L at position 1544 (receptor)
chain: NEHDDCQVTNPSTGHLFDLSSLSGRAGFTAAYSLKGLVYMSICGENENCPPGVGACFGQTRISVGKANKRLRYVDQVLQLVYKDGSPCPSKSGLSYKSVISFVCRPEAGPTNRPMLISLDKQTCTLFFSWHTPLACEQATHHHHHH
notes: Secreted from Pichia pastoris; also called E1544L
B21: IGF2R domain 11 with M at position 1544 (receptor)
chain: NEHDDCQVTNPSTGHLFDLSSLSGRAGFTAAYSMKGLVYMSICGENENCPPGVGACFGQTRISVGKANKRLRYVDQVLQLVYKDGSPCPSKSGLSYKSVISFVCRPEAGPTNRPMLISLDKQTCTLFFSWHTPLACEQATHHHHHH
notes: Secreted from Pichia pastoris; also called E1544M

The target in one test is T1, Insulin-like Growth Factor II (IGF-II), recombinant human (human, UniProt P01344 25-91, biotinyl group (site not stated) when immobilised for SPR; not biotinylated as SPR analyte or in ITC).
T1 construct: mature; Bought as Biotinyl-IGF-II from GroPep for immobilisation on streptavidin chips; also called IGF2; Biotinyl-IGF-II
T1 sequence (P01344 25-91): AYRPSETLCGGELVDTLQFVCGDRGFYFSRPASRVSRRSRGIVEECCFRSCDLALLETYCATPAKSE
Nature of the test: SPR, steady-state KD relative to wild type domain 11. The method, then: […]. Values are the mean±S.E.M. of three separate experiments.
Kinetic analysis by Surface Plasmon Resonance (SPR) was conducted on a BIAcore 3000 biosensor (BIAcore, Uppsala, Sweden) at 25° C. in HBS-EP (10 mM HEPES, pH 7.4, 150 mM NaCl, 3 mM EDTA, 0.005% surfactant P20) at a flow rate of 40 μl/min. […] Kinetic experiments consisted of a two minute injection of analyte followed by a 100s dissociation phase in running buffer, after which the binding surface was regenerated with a 2 minute injection of 2 M MgCl₂. A blank flow cell was used for in-line reference subtraction of changes due to differences in refractive index of running buffer versus sample and a buffer-only injection was used to subtract instrument noise and drift. Injections were performed in duplicate for each concentration and in a randomised order. Kinetic parameters were determined by global fitting of sensorgrams to a two-state (conformational change) binding model using BIAevaluation software version 4.0.1. In all cases the minor component made an insignificant contribution to the overall affinity and as such only the kinetic parameters of the major binding component were used. For each interaction the dissociation affinity constant (KD) was also calculated by fitting of the response of each concentration at equilibrium to a steady-state affinity model using BIAevaluation. In order to investigate the influence of ionic strength, kinetic experiments were conducted in HBS-EP running buffers containing the desired NaCl concentration. In each case, analyte samples were made up in the appropriate running buffer prior to injection.
Following purification, the binding of each mutant construct to IGF2 was assessed by SPR and compared to the wild type domain 11.
For orientation: SPR reads the build-up and loss of mass on a sensor chip optically.
Take B1: the “Relative Affinity” value was 0.9 fold vs wild type domain 11.

On to B2, for which the “Relative Affinity” value is 0.36 fold vs wild type domain 11.

Consider B3, for which the “Relative Affinity” value was 0.61 fold vs wild type domain 11.

As for B4, the “Relative Affinity” value was 0.39 fold vs wild type domain 11.

Turning to B5, the “Relative Affinity” value was 0.8 fold vs wild type domain 11.

With B6, the “Relative Affinity” value was 0.11 fold vs wild type domain 11.

In a further test the target is T1, Insulin-like Growth Factor II (IGF-II), …. The test is described as above. This is another data set of the same source.
As for B7, the “Relative Affinity” value is 1.94 fold vs wild type domain 11.

As for B8, the “Relative Affinity” value was 1.72 fold vs wild type domain 11.

As to B9, the “Relative Affinity” value is 2.43 fold vs wild type domain 11.

In the case of B10, the “Relative Affinity” value is 3.07 fold vs wild type domain 11.

Regarding B11, the “Relative Affinity” value is 0.57 fold vs wild type domain 11.

As for B12, the “Relative Affinity” value is 1.83 fold vs wild type domain 11.

As to B13, the “Relative Affinity” value was 3.87 fold vs wild type domain 11.

For B14, the “Relative Affinity” value is 7.33 fold vs wild type domain 11.

As to B15, the “Relative Affinity” value is 0.88 fold vs wild type domain 11.

Regarding B16, the “Relative Affinity” value was 0.49 fold vs wild type domain 11.

On to B17, for which the “Relative Affinity” value is 1.8 fold vs wild type domain 11.

In the case of B18, the “Relative Affinity” value is 5.24 fold vs wild type domain 11.

As for B19, the “Relative Affinity” value was 0.48 fold vs wild type domain 11.

Turning to B20, the “Relative Affinity” value was 2.02 fold vs wild type domain 11.

On to B21, for which the “Relative Affinity” value is 2.75 fold vs wild type domain 11.
